# Laboratory results taken from patent US9987329B2, “Methods for treating peripheral nerve damage” (Cornell University, priority 2014, dated 2018).
# B1: recombinant mouse VEGF-B^186 (protein, listed as Homo sapiens)
# chain: MSPLLRRLLLAALLQLAPAQAPVSQPDAPGHQRKVVSWIDVYTRATCQPREVVVPLTVELMGTVAKQLVPSCVTVQRCGGCCPDDGLECVPTGQHQVRMQILMIRYPSSQLGEMSLEEHSQCECRPKKKDSAVKPDRAATPHHRPQPRSVPGWDSAPGAPSPADITHPTPAPGPSAHAAPSTTSALTPGPAAAAADAAASSVAKGGA
# notes: vascular endothelial growth factor B; recombinant mouse VEGF-B186 (R&D 767-VE-010)
# Legend:
# [1] = system: trigeminal ganglion (TG) neuronal cells; experiment: Trigeminal ganglion neuronal growth assay; format: cell-based, mouse
# Procedure: Trigeminal ganglion (TG) neuronal cells were obtained and cultured as described previously. Pan, Z., Fukuoka et al., FASEB J. 27, 2756-2767 (2013). To evaluate the effect of VEGF-B on neuronal growth, TG neuronal cells were treated with 10-100 ng/ml recombinant mouse VEGF-B^186 (R&D 767-VE-010). The VEGF-B treatments were replenished every other day. Neurite formation and growth was followed up to 3 days. […] VEGF receptors were inhibited by using neutralizing antibodies against VEGFR1 (R&D AF471), VEGFR2 (R&D MAB4431) and Neuropilin 1 (NRP1) (R&D MAB566). TG cells were incubated in a dose dependent manner with anti-VEGFR1, anti-VEGFR2 or anti-NRP1 for 1 hour prior to the addition of 50 ng/ml VEGF-B. The tyrosine kinase domains of VEGFR2 were inhibited with specific inhibitors by incubating TG neuronal cells with 10 μM SU 1498 (Sigma T4192) or 5 nM Ki 8751 (Sigma K1265) for 1 hr before adding 50 ng/ml VEGF-B. All neurite growth was imaged with an AxioObserver Z1 fluorescence microscope in the YFP channel attached to an AxioCam HRm digital camera (Zeiss) operated by AxioVision 4.0 software. Images were analyzed using Neurolucida 9 (MBF Bioscience) a quantitative nerve tracing software.
# TG neuronal cells = experiment: Cell viability assay (Live/Dead) of TG neuronal cells; format: cell-based, mouse; settings: 50 ng/ml single dose on first day of culture without serum; day 2 and 3
# Procedure: The effect of VEGF-B on the survival of TG neuronal cells was evaluated with the Live/Dead Viability/Cytotoxicity kit (Invitrogen), as described in Pan, Z., Fukuoka et al., FASEB J. 27, 2756-2767 (2013).
# [2] = system: corneal nerves of C57BL/6 and Vegf-b−/− mice; experiment: Corneal nerve regeneration after epithelial debridement, subconjunctival injection; format: in vivo, mouse; settings: 0.5 ng subconjunctival single bolus, 7 days after debridement
# Procedure: Wild type C57BL/6 and Vegf-b^-/- mice were subject to corneal epithelial debridement as described above or left intact. A 5 ul volume containing 0.5 ng VEGF-B^186 in PBS was injected subconjunctivally, at the lateral temporal bulbar conjunctiva, using a 10-μl micro-syringe (Hamilton Co). Equal volume of 0.1% bovine serum albumin (BSA) was used in control mice. The recovery of the corneal epithelial injury was imaged at 24, 40 and 48 hours by applying 1% fluorescein solution to the corneal surface and wounds photographed under diffuse cobalt blue light attached to a slit lamp bio-microscope (Nikon FS-3, Nikon) connected to a digital camera (Canon EOS 60D). The corneal epithelial defect areas were quantified by analyzing the images with Photoshop CS4 (Adobe). Corneas were harvested after one week for immunodetection of nerves. Possible growth of blood vessel into the cornea was monitored by slit lamp examination. […] The YFP fluorescent nerves were imaged with a fluorescence microscope at the site of pellet implantation and at a site 180 degrees opposite to the pellet. Images were analyzed using Neurolucida. […] Quantification of corneal nerves regeneration was obtained from corneal wholemount images traced and analyzed with Neurolucida 9 software. […] Central and peripheral cornea nerve densities were calculated and expressed as a percentage of control.
# [3] = system: corneal sensation of C57BL/6 and Vegf-b−/− mice; experiment: Corneal nerve sensation testing (von Frey Hairs); format: in vivo, mouse
# Procedure: The degree of recovered nerve sensation in the injured cornea was evaluated using calibrated von Frey Hairs (North Coast Medicals). In this method the center of the cornea of un-anesthetized mouse was touched with thin filaments of ascending stiffness (0.008 to 1.4 g) until the hairs buckled and a blink response was elicited. C57BL/6 wild type and Vegf-b^−/− mice subjected to corneal epithelial debridement and receiving subconjuntival injection of VEGF-B, as well as their respective controls, were evaluated to determine the minimal force (g) needed for a blink response. Eight mice were tested in each group in three individual experiments.
# [4] = system: corneal nerves of Thy-1-YFP mice; experiment: Corneal nerve regeneration with combinations of VEGF-A and VEGF-B; format: in vivo, mouse; settings: ligand administered separately, two weeks post-injury (FIG. 14)
# Procedure: Thy-1-YFP mice were subjected to cornea epithelium debridement to ablate the superficial nerve endings that innervate the cornea Immediately after injury, the mice were treated with different combinations of VEGF-A and VEGF-B. As shown, combinations of VEGF ligands induce greater nerve regeneration in vivo.
# The observed effects were also recapitulated in vivo. Thy-1-YFP neurofluorescent mice were used to induce a corneal epithelium injury that results in ablation of the superficial nerve endings of the cornea. The mice were then treated with different combinations of VEGF-A and VEGF-B, and nerve regeneration was analyzed after two weeks post-injury.
# cornea = settings: mouse, in vivo
# Procedure: Wild type C57BL/6 and Vegf-b^−/− mice were subject to corneal epithelial debridement as described above or left intact. A 5 ul volume containing 0.5 ng VEGF-B^186 in PBS was injected subconjunctivally, at the lateral temporal bulbar conjunctiva, using a 10-μl micro-syringe (Hamilton Co). Equal volume of 0.1% bovine serum albumin (BSA) was used in control mice. The recovery of the corneal epithelial injury was imaged at 24, 40 and 48 hours by applying 1% fluorescein solution to the corneal surface and wounds photographed under diffuse cobalt blue light attached to a slit lamp bio-microscope (Nikon FS-3, Nikon) connected to a digital camera (Canon EOS 60D). The corneal epithelial defect areas were quantified by analyzing the images with Photoshop CS4 (Adobe). Corneas were harvested after one week for immunodetection of nerves. Possible growth of blood vessel into the cornea was monitored by slit lamp examination.
# [5] = 50 ng/ml each, three days in culture (FIG. 2B)
# [6] = 50 ng/ml, three days in culture (FIG. 2B)
molecule,measurement,setting,value
B1,length of neurites compared with untreated controls,"[1]; 50 ng/ml VEGF-B, 3 days in culture (FIG. 1)",almost four folds greater
same,neurite elongation compared with VEGF-A treatment,[1]; [5],more than 2 folds
same,number of branching nodes compared with VEGF-A treated neurons,[1]; [5],more than 4 folds
same,pattern of neurite growth (elongation and branching),"[1]; 50 ng/ml, three days in culture (FIG. 2A)",extensive elongation and branching of the neurites
same,neurite elongation compared with untreated control,[1]; [6],five folds higher
same,number of branching nodes compared with untreated control,[1]; [6],seven fold higher
same,dose dependence of neurite growth induction,[1]; 10-100 ng/ml VEGF-B (FIG. 7),dose-dependent
same,most potent dose for inducing neurite elongation and branching,"[1]; increasing concentrations of VEGF-B, 3 days in culture (FIG. 7)",50 ng/mL
same,cells surviving (neuronal viability),TG neuronal cells,50%
same,corneal nerve regeneration into the injured zone,[2]; Vegf-b−/− mice,confined to the peripheral cornea
same,corneal nerve regeneration into the injured zone,[2]; wild-type mice,enhanced nerve regeneration in both the central and peripheral corneas
same,corneal sensation compared with untreated Vegf-b−/− mice,"[3]; Vegf-b−/− mice, 2 weeks post-injury (FIG. 4F)",significantly improved sensation
same,functional recovery of corneal sensation,"[3]; wild type and Vegf-b−/− mice, 7 days of treatment (FIG. 4E)",began to improve
same,corneal sensation,"[3]; wild-type mice, 2 weeks post-injury (FIG. 4F)",completely restored
same,nerve regeneration,[4],induced greater nerve regeneration
same,neovascularization of the cornea,cornea,did not produce any unwanted neovascularization
